Assay results published in patent US10464978B2, “Peptides and combination of peptides for use in immunotherapy against ovarian cancer and other cancers” (immatics biotechnologies GmbH, priority 2015, dated 2019).

Molecular target: HLA-A*02:01 (Homo sapiens, UniProt P04439, D140Y/D185E/D98H/E176V/E277Q/G131W/G231S/I119V/I121R/I166T/I218V/L300P/L318F/N151K/N90K/P208A/P217A/Q86G/Q94H/R138H/R169H/T345S)
Assay: MHC binding assay: UV-ligand exchange with beta2m ELISA (peptide exchange yield)
Details: binding to HLA-A*02:01
Summary of the method: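 Peptide-MHC complexes formed by UV-ligand exchange, a UV-cleavable peptide being replaced by the candidate peptide. Exchange products diluted 100-fold, captured on streptavidin-coated plates for 1h at 37° C, then detected with 2 ug/ml HRP anti-β2m (1h, 37° C) and TMB, absorbance 450 nm; value is exchange yield.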

Row | Peptide exchange (MHC class I binding score, peptide exchange yield) | Substance
1 | “+++” (≥50 = +++) | 500 (SLMEDQVLQL; listed as Homo sapiens) [compound 500]
2 | “+++” (≥50 = +++) | 501 (LLDPNVKSIFV; listed as Homo sapiens) [compound 501]
3 | “+++” (≥50 = +++) | 502 (RLLAQVPGL; listed as Homo sapiens) [compound 502]
4 | “+++” (≥50 = +++) | 503 (SLNHFTHSV; listed as Homo sapiens) [compound 503]
5 | “++” (≥20% = ++) | 504 (GLSDGNPSL; listed as Homo sapiens) [compound 504]
6 | “++” (≥20% = ++) | 505 (SLAPGDVVRQV; listed as Homo sapiens) [compound 505]
7 | “+++” (≥50 = +++) | 506 (KLLGKVETA; listed as Homo sapiens) [compound 506]
8 | “+++” (≥50 = +++) | 507 (KLIDDQDISISL; listed as Homo sapiens) [compound 507]
9 | “+++” (≥50 = +++) | 508 (ILAQEQLVVGV; listed as Homo sapiens) [compound 508]
10 | “+++” (≥50 = +++) | 509 (FLFDTKPLIV; listed as Homo sapiens) [compound 509]
11 | “++” (≥20% = ++) | 510 (KLYSVVSQL; listed as Homo sapiens) [compound 510]
12 | “++” (≥20% = ++) | 511 (FLDPYCSASV; listed as Homo sapiens) [compound 511]
13 | “+++” (≥50 = +++) | 512 (SLSEIVPCL; listed as Homo sapiens) [compound 512]
14 | “++” (≥20% = ++) | 513 (SLWPSPEQL; listed as Homo sapiens) [compound 513]
15 | “+++” (≥50 = +++) | 514 (ILVDWLVQV; listed as Homo sapiens) [compound 514]
16 | “+++” (≥50 = +++) | 515 (LLQELVLFL; listed as Homo sapiens) [compound 515]
17 | “++” (≥20% = ++) | 516 (AVGPASILKEV; listed as Homo sapiens) [compound 516]
18 | “+++” (≥50 = +++) | 517 (LLMPIPEGLTL; listed as Homo sapiens) [compound 517]
19 | “+++” (≥50 = +++) | 518 (KLNAEVACV; listed as Homo sapiens) [compound 518]

Row | Peptide exchange (MHC class I binding score, peptide exchange yield) | Substance
20 | “+++” (≥50 = +++) | 519 (GLLHLTLLL; listed as Homo sapiens) [compound 519]
21 | “+” (≥10% = +) | 520 (LAVHPSGVAL; listed as Homo sapiens) [compound 520]
22 | “+++” (≥50 = +++) | 521 (MLLTKLPTI; listed as Homo sapiens) [compound 521]
23 | “++” (≥20% = ++) | 522 (TLWYRSPEV; listed as Homo sapiens) [compound 522]
24 | “++” (≥20% = ++) | 523 (YQIPRTFTL; listed as Homo sapiens) [compound 523]
25 | “++” (≥20% = ++) | 524 (ALIENLTHQI; listed as Homo sapiens) [compound 524]
26 | “+++” (≥50 = +++) | 525 (VLLEAGEGLVTI; listed as Homo sapiens) [compound 525]
27 | “++” (≥20% = ++) | 526 (RLAEVGQYEQV; listed as Homo sapiens) [compound 526]
28 | “++++” (≥75% = ++++) | 527 (FLLEPGNLEV; listed as Homo sapiens) [compound 527]
29 | “+++” (≥50 = +++) | 528 (SVAEGRALMSV; listed as Homo sapiens) [compound 528]
30 | “+++” (≥50 = +++) | 529 (LLADELITV; listed as Homo sapiens) [compound 529]
31 | “+++” (≥50 = +++) | 530 (VMYADIGGMDI; listed as Homo sapiens) [compound 530]
32 | “+++” (≥50 = +++) | 531 (YTLPIASSIRL; listed as Homo sapiens) [compound 531]
33 | “+++” (≥50 = +++) | 537 (TLAPGEVLRSV; listed as Homo sapiens) [compound 537]
34 | “++” (≥20% = ++) | 538 (LLLAHIIAL; listed as Homo sapiens) [compound 538]
35 | “+++” (≥50 = +++) | 539 (ALFDAQAQV; listed as Homo sapiens) [compound 539]
36 | “+++” (≥50 = +++) | 541 (SMLEPVPEL; listed as Homo sapiens) [compound 541]
37 | “+++” (≥50 = +++) | 542 (RVWDISTVSSV; listed as Homo sapiens) [compound 542]
38 | “+++” (≥50 = +++) | 543 (GLLPTPITQQASL; listed as Homo sapiens) [compound 543]

The next lines start with the substance.

Row | Substance | Peptide exchange (MHC class I binding score, peptide exchange yield)
39 | 469 (YLASDEITTV; listed as Homo sapiens) [compound 469] | “+++” (≥50 = +++)
40 | 471 (YLYNNMIAKI; listed as Homo sapiens) [compound 471] | “+++” (≥50 = +++)
41 | 472 (KLLEVSDDPQV; listed as Homo sapiens) [compound 472] | “+++” (≥50 = +++)
42 | 473 (AMATESILHFA; listed as Homo sapiens) [compound 473] | “+++” (≥50 = +++)
43 | 474 (YLDPALELGPRNV; listed as Homo sapiens) [compound 474] | “+++” (≥50 = +++)
44 | 475 (LLLNEEALAQI; listed as Homo sapiens) [compound 475] | “+++” (≥50 = +++)
45 | 476 (ALMERTGYSMV; listed as Homo sapiens) [compound 476] | “+++” (≥50 = +++)
46 | 477 (ALLPASGQIAL; listed as Homo sapiens) [compound 477] | “+++” (≥50 = +++)
47 | 478 (YLLHEKLNL; listed as Homo sapiens) [compound 478] | “+++” (≥50 = +++)
48 | 479 (SLFGNSGILENV; listed as Homo sapiens) [compound 479] | “+++” (≥50 = +++)
49 | 480 (ALLEDSCHYL; listed as Homo sapiens) [compound 480] | “+++” (≥50 = +++)
50 | 481 (GLIEDYEALL; listed as Homo sapiens) [compound 481] | “+++” (≥50 = +++)
51 | 484 (SLIEKVTQL; listed as Homo sapiens) [compound 484] | “+++” (≥50 = +++)
52 | 485 (NVPDSFNEV; listed as Homo sapiens) [compound 485] | “+++” (≥50 = +++)
53 | 486 (AVMESIQGV; listed as Homo sapiens) [compound 486] | “+++” (≥50 = +++)
54 | 487 (LLINSVFHV; listed as Homo sapiens) [compound 487] | “+++” (≥50 = +++)
55 | 488 (FLAEDPKVTL; listed as Homo sapiens) [compound 488] | “+++” (≥50 = +++)
56 | 489 (KMWEELPEVV; listed as Homo sapiens) [compound 489] | “+++” (≥50 = +++)
57 | 490 (FLLQHVQEL; listed as Homo sapiens) [compound 490] | “+++” (≥50 = +++)
58 | 491 (GLNDRSDAV; listed as Homo sapiens) [compound 491] | “++” (≥20% = ++)
59 | 492 (SLFDGFADGLGV; listed as Homo sapiens) [compound 492] | “+++” (≥50 = +++)
60 | 493 (GLLGEKTQDLIGV; listed as Homo sapiens) [compound 493] | “+++” (≥50 = +++)
61 | 494 (ALQPEPIKV; listed as Homo sapiens) [compound 494] | “++” (≥20% = ++)
62 | 495 (FIFSEKPVFV; listed as Homo sapiens) [compound 495] | “+++” (≥50 = +++)
63 | 496 (FLVEKQPPQV; listed as Homo sapiens) [compound 496] | “+++” (≥50 = +++)
64 | 497 (GLLEKLTAI; listed as Homo sapiens) [compound 497] | “+++” (≥50 = +++)
65 | 498 (KLWTGGLDNTV; listed as Homo sapiens) [compound 498] | “+++” (≥50 = +++)
66 | 499 (KIFDIDEAEEGV; listed as Homo sapiens) [compound 499] | “++” (≥20% = ++)
